Laboratory results as given in US20160074509A1.

Target: OVA323-339 in the context of MHC class II (I-A^b) (mouse; chicken) (UniProt P14434)
Assay: cell-based or functional assay

T cell receptor of OT-II transgenic CD4+ T cells (TCR)
proliferation of CFSE-labeled OT-II cells transferred into the footpad one week after immunization with OVA-KFE8D nanofibers (shift in CFSE intensity) (% of transferred cells): 60 | proliferation of adoptively transferred CFSE-labeled OT-II cells in mice immunized with OVA-Q11 or OVA in CFA (shift in CFSE intensity) (% of transferred cells): 95
